Results reported in patent publication US20220363761A1 (MERUS N V, published 2022).

T1: human LAG-3 (expressed on 293FF cells) (human, UniProt P18627 23-525)
T1 construct: whole, on cells; also called CD223
T1 sequence (looked up): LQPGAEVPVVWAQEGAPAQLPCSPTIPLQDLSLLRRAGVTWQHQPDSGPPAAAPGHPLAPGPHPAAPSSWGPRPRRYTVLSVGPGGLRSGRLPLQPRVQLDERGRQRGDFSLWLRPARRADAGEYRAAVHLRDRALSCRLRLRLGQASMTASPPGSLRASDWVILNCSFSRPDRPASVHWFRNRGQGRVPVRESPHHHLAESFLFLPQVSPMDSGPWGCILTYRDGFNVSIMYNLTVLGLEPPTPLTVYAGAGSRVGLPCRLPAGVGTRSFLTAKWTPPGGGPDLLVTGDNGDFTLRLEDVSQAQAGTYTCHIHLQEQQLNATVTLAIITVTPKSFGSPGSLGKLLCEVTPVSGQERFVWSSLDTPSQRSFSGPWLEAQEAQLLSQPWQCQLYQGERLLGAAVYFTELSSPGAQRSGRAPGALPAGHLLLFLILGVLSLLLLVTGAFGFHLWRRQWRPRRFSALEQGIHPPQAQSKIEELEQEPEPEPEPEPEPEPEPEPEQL

B1: PD-1xLAG-3 bispecific antibody SEQ ID NO: 1 × SEQ ID NO: 14 (bispecific antibody)
heavy (part 1 of 2) 1: not shown
heavy (part 2 of 2) 1: not shown
heavy (part 1 of 2) 2: EVQLVQSGSELKKPGASVKVSCKASGYTFTTNALNWVRQAPGQGLEWMGWINTHTGNPTYAQGFIGRFVFSLDTSVSTAYLQIRSLKAEDTAVYYCAREPNWGVYFDYWGQGTLVTVSSASTKGPSVFPLAPSSKSTSGGTAALGCLVKDYFPEPVTVSWNSGALTSGVHTFPAVLQSSGLYSLSSVVTVPSSSLGTQTYICNVNHKPSNTKVDKRV
heavy (part 2 of 2) 2: not shown
light: not shown
notes: IgG1; common light chain; also called PB4; not shown: hinge (IgG1)
B2: PD-1xLAG-3 bispecific antibody SEQ ID NO: 6 × SEQ ID NO: 14 (bispecific antibody)
heavy (part 1 of 2) 1: not shown
heavy (part 2 of 2) 1: not shown
heavy (part 1 of 2) 2: B1 heavy (part 1 of 2) 2
heavy (part 2 of 2) 2: not shown
light: not shown
notes: IgG1; common light chain; also called PB10; PD-1xLAG-3 bispecific antibody 2; not shown: hinge (IgG1)
B3: PD-1xLAG-3 bispecific antibody SEQ ID NO: 1 × SEQ ID NO: 11 (bispecific antibody)
heavy (part 1 of 2) 1: not shown
heavy (part 2 of 2) 1: not shown
heavy (part 1 of 2) 2: QVQLQESGPGLVRPSETLSLTCTVSGGSISSYSWSWIRQPPGKGLEWIGYIDYSGSTNYNPSLKSRVTISVDTSKTQFSLKLSSVSAADTAVYYCAKDLLYKWNYVEGFDIWGQGTTVTVSSASTKGPSVFPLAPSSKSTSGGTAALGCLVKDYFPEPVTVSWNSGALTSGVHTFPAVLQSSGLYSLSSVVTVPSSSLGTQTYICNVNHKPSNTKVDKRV
heavy (part 2 of 2) 2: not shown
light: not shown
notes: IgG1; common light chain; also called PB1; not shown: hinge (IgG1)
B4: PD-1xLAG-3 bispecific antibody SEQ ID NO: 5 × SEQ ID NO: 11 (bispecific antibody)
heavy (part 1 of 2) 1: not shown
heavy (part 2 of 2) 1: not shown
heavy (part 1 of 2) 2: B3 heavy (part 1 of 2) 2
heavy (part 2 of 2) 2: not shown
light: not shown
notes: IgG1; common light chain; also called PB13; not shown: hinge (IgG1)

Target: T2, human PD-1 (expressed on cells) (human, UniProt Q15116 25-288)
Experiment: cell-based or functional assay

T2 sequence (Q15116 25-288): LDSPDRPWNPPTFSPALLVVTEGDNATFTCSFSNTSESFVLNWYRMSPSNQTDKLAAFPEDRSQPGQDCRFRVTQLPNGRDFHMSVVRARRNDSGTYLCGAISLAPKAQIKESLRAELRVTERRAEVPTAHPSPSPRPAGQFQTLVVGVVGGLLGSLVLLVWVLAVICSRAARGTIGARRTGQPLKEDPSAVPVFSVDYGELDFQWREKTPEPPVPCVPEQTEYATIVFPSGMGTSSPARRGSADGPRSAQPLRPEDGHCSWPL

Binder	EC50 (read off the curve); PD-1/PD-L1 reporter assay, luciferase fold induction [µg/mL]
B1	~1
B2	~1

Target: T2, human PD-1 (expressed on cells)
Experiment: cell-based or functional assay
Remark: another data set of the same source

Binder	EC50 (read off the curve); PD-1/PD-L1 reporter assay, luciferase fold induction [µg/mL]
B3	~0.5
B4	~0.7

Target: cynomolgus PD-1 (expressed on 293FF cells) (cynomolgus, UniProt B0LAJ3 25-288)
Experiment: FACS on 293FF cells transiently transfected with cynomolgus PD-1
Method: (§1) The binding of bispecific antibodies was analyzed by FACS using cell lines stably transfected with human LAG-3 or rhesus LAG-3, or transiently transfected with human PD-1 or cynomolgus PD-1. […] IgG specific binding was measured by FACS using a 8-step, 5-fold dilution starting at 50 ug/ml. A goat-anti-human PE was used as secondary detection antibody. Cells w/o staining or only secondary detection antibody were included as negative assay controls.

Chain of cynomolgus PD-1 (expressed on 293FF cells) (B0LAJ3 entry or part of it limits assumed): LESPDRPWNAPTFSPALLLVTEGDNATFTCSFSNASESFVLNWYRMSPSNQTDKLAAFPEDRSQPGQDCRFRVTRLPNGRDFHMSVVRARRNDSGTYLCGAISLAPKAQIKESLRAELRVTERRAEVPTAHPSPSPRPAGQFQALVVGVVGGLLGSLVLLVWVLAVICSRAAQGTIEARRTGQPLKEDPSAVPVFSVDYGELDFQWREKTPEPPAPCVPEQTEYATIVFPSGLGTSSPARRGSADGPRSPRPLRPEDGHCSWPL

Binder	binding result
B1	binds
B2	binds
B3	binds
B4	binds

Target: T2, human PD-1 (expressed on cells)
Experiment: cell-based or functional assay
Remark: another data set of the same source

Binder	AUC relative to positive control, PD-1/LAG-3 reporter assay [%]	EC50 (nM) PD-1/LAG-3 reporter assay [nM]
B1	271	9.96
B2	246	18
B3	215	19.1
B4	218	10.1

Target: T1, human LAG-3 (expressed on 293FF cells)
Experiment: FACS on 293FF cells stably transfected with human LAG-3
Method: as §1

Binder	binding result
B1	binds
B2	binds
B3	binds
B4	binds
